Common to all, as to assay: radioligand binding
The target in experiment [1] is [S186E]Ls-AChBP, Ub-tagged (Lymnaea stagnalis) (UniProt P58154).
Experiment [2] addresses [T184F]Ls-AChBP, Ub-tagged (Lymnaea stagnalis) (UniProt P58154).
Experiment [3] addresses [Q55K]Ls-AChBP, Ub-tagged (Lymnaea stagnalis) (UniProt P58154).
The target in experiment [4] is [T184K]Ls-AChBP, Ub-tagged (Lymnaea stagnalis) (UniProt P58154).
The target of experiment [5] is Ubiquitin (Ub)-tagged Ls-AChBP, wild type (Lymnaea stagnalis) (UniProt P58154).
For experiment [6], the target named is [T184F S186E]Ls-AChBP, Ub-tagged (Lymnaea stagnalis) (UniProt P58154).
The target of experiment [7] is [H69A]Ls-AChBP, Ub-tagged (Lymnaea stagnalis) (UniProt P58154).
Experiment [8] addresses [R23D]Ls-AChBP, Ub-tagged (Lymnaea stagnalis) (UniProt P58154).
Experiment [9] concerns the target Ubiquitin (Ub)-tagged Ls-AChBP, wild type (Lymnaea stagnalis) (UniProt P58154). The source holds these as a separate data set.

IC50 data for four substances are collected here from article PMC10133702.

Like-named read-outs stand apart in the source and are kept apart here.

As to “VxXXB-C(19–50), full-length C-terminal domain of αD-conotoxin VxXXB (peptide)”, the IC50 in experiment [1] is 0.09 µM; in experiment [2] it was 0.58 µM; in experiment [3], 29.7 µM; in experiment [4], more than 100 µM; in experiment [5], 7.2 µM; in experiment [6], 0.03 µM. Further, the IC50 in experiment [7], in experiment [8] and in experiment [9] was 10 µM throughout.
With “VxXXB-C(21–50), C-terminal domain of αD-conotoxin VxXXB (peptide)”, the IC50 came to 0.04 µM in experiment [1]; 7.2 µM in [2]; 36 µM in experiment [3]; 55 µM in experiment [4]; 10 µM in experiment [5]; 0.05 µM in experiment [6].
Consider “VxXXB-CNC, full-length synthetic VxXXB (peptide)”, for which the IC50 in [6] was 0.004 µM; in experiment [7], more than 10 µM; in experiment [8], more than 10 µM; in [9], 0.8 µM.
In the case of “native αD-conotoxin VxXXB (from UniProt P0C1W6 46-95) (natural protein)”, the IC50 was 0.011 µM in experiment [5] and 0.001 µM in experiment [6].

For orientation: IC50 means the concentration needed to halve the response being measured.
